Among the data in patent EP1147413B1 are luciferase activity of affinity-purified GDF-8 complexes after 1U/ml m-calpain for 2 hours values, retold here.

The target of the assay is mouse GDF-8 pro-domain without tag, lacking the signal peptide, released from WT-GDF-8-F in QM-7 cells (mouse) (UniProt O08689). Kind of assay: cell-based or functional assay.
Chain of UniProt O08689 (O08689 20-267 limits assumed): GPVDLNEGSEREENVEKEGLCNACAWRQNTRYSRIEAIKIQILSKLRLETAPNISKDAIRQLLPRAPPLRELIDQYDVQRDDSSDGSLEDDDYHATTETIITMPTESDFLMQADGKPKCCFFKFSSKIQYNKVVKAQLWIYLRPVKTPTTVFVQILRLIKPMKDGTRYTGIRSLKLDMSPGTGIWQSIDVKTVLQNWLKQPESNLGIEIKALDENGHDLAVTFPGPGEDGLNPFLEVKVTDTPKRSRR

As to m-calpain (enzyme), the luciferase activity of affinity-purified GDF-8 complexes after 1U/ml m-calpain for 2 hours at 37° C, against the untreated control amounted to 2.5 fold.
